“And” between values parts separate entries of the source, which are not always exact repeats. Equal values may be shown once. Marks after values point to notes of the source that are not given here.
Tested on: acute myocardial injury caused by viral (Coxsackie B3) infection in mice
Test: Survival of mice infected with Coxsackie B3 virus
Assay type: in vivo, BALB/C mice
Conditions: for relative survival rate: mice
Description: 0.2 ml of 100×TCID50 CVB3 provided by Zhong Shan Hospital affiliated to Fudan University was injected intra-abdominally and established myocarditis model. Within the following week, the mouse manifested pilo-erection, depilation, emaciation, dullness and death, about half of the tested animals died at the 8th day.
Intravenous injection of the testing drug into the tail vein was carried out the same day of intra-abdominal viral infection in mice, the injection was performed for consecutive 5 days, animal survival rate was monitored, after completion of the experiment, echocardiograph, myocardial pathologic examination, serum troponin determination were carried out.
The death status of model animals in various testing drug group was monitored.
• Normal mice control group, model group and testing drug group were set up; • Normal mice control group (n=10); • Model group (n=20): Prepared buffer solution was injected; • Testing drug group (n=20): […] courses with 20 animals assigned for each group; • Placebo control group (n=20): Intra-abdominal injection of non-CVB3 freeze-thaw cellular supernatant, 0.2 ml/animal. 10.2 Dosage Set Up, Preparation of Testing Drug, Route of Drug Administration, Times of Drug Administration, Concentration and Volume of the Testing Drug • rhNRG-1β was diluted with preparation buffer solution (10 mM PB, 0.2% human serum albumin, 5% mannitol to needed concentration; • Three drug administration groups were set up, intravenous injection for consecutive 3-day, 5-day and 7-day, drug volume for each dose was 0.2 ml/animal; • Drug administration of the model group was intravenous injection into the tail vein of mice, once every day (qd), for consecutive 7 days, drug volume for each dose was 0.2 ml/animal. 7.3 Method of the Experiment 7.3.1 Set Up of Acute Viral Myocariditis Animal Model in Mice

B1: rhNRG-1 β: Recombinant human neuregulin fragment of 61 amino acid (SEQ ID NO:4), 3 disulfide bonds, expressed in E. coli (protein, listed as Homo sapiens)
chain: SHLVKCAEKEKTFCVNGGECFMVKDLSNPSRYLCKCPNEFTGDRCQNYVMASFYKAEELYQ
modifications: disulfide (positions not given here)
100%: relative survival rate (5 μg/kg (so in the source) iv qd × 5, 1st day, (I)) | relative survival rate (5 μg/kg (so in the source) iv qd × 5, 2nd day, (I)) | relative survival rate (5 μg/kg (so in the source) iv qd × 5, 3rd day, (I)) | relative survival rate (7.5 μg/kg iv qd × 5, 1st day, (II)) | relative survival rate (7.5 μg/kg iv qd × 5, 2nd day, (II)) | relative survival rate (7.5 μg/kg iv qd × 5, 3rd day, (II)) | relative survival rate (15 μg/kg iv qd × 5, 1st day, (I)) | relative survival rate (15 μg/kg iv qd × 5, 1st day, (II)) | relative survival rate (15 μg/kg iv qd × 5, 2nd day, (I)) | relative survival rate (15 μg/kg iv qd × 5, 2nd day, (II)) | relative survival rate (15 μg/kg iv qd × 5, 3rd day, (I)) | relative survival rate (15 μg/kg iv qd × 5, 3rd day, (II)) | relative survival rate (15 μg/kg iv qd × 5, 4th day, (I)) | relative survival rate (30 μg/kg iv qd × 3, 1st day, (I)) | relative survival rate (30 μg/kg iv qd × 3, 1st day, (II)) | relative survival rate (30 μg/kg iv qd × 3, 2nd day, (I)) | relative survival rate (30 μg/kg iv qd × 3, 2nd day, (II)) | relative survival rate (30 μg/kg iv qd × 3, 3rd day, (I)) | relative survival rate (30 μg/kg iv qd × 3, 3rd day, (II)) | relative survival rate (30 μg/kg iv qd × 3, 4th day, (II)) | relative survival rate (30 μg/kg iv qd × 5, 1st day, (I)) | relative survival rate (30 μg/kg iv qd × 5, 1st day, (II)) | relative survival rate (30 μg/kg iv qd × 5, 1st day, Example 5 (I)) | relative survival rate (30 μg/kg iv qd × 5, 1st day, Example 5 (II)) | relative survival rate (30 μg/kg iv qd × 5, 2nd day, (I)) | relative survival rate (30 μg/kg iv qd × 5, 2nd day, (II)) | relative survival rate (30 μg/kg iv qd × 5, 2nd day, Example 5 (I)) | relative survival rate (30 μg/kg iv qd × 5, 2nd day, Example 5 (II)) | relative survival rate (30 μg/kg iv qd × 5, 3rd day, (I)) | relative survival rate (30 μg/kg iv qd × 5, 3rd day, (II)) | relative survival rate (30 μg/kg iv qd × 5, 3rd day, Example 5 (I)) | relative survival rate (30 μg/kg iv qd × 5, 3rd day, Example 5 (II)) | relative survival rate (30 μg/kg iv qd × 5, 4th day, (I)) | relative survival rate (30 μg/kg iv qd × 5, 4th day, (II)) | relative survival rate (30 μg/kg iv qd × 5, 4th day, Example 5 (I)) | relative survival rate (30 μg/kg iv qd × 5, 4th day, Example 5 (II)) | relative survival rate (30 μg/kg iv qd × 5, 5th day, (I)) | relative survival rate (30 μg/kg iv qd × 7, 1st day, (I)) | relative survival rate (30 μg/kg iv qd × 7, 1st day, (II)) | relative survival rate (30 μg/kg iv qd × 7, 2nd day, (I)) | relative survival rate (30 μg/kg iv qd × 7, 2nd day, (II)) | relative survival rate (30 μg/kg iv qd × 7, 3rd day, (I)) | relative survival rate (30 μg/kg iv qd × 7, 4th day, (I)) | relative survival rate (30 μg/kg iv qd × 7, 5th day, (I))
90%: relative survival rate (5 μg/kg (so in the source) iv qd × 5, 5th day, (I)) | relative survival rate (7.5 μg/kg iv qd × 5, 4th day, (II)) | relative survival rate (15 μg/kg iv qd × 5, 5th day, (II)) | relative survival rate (30 μg/kg iv qd × 3, 5th day, (I)) | relative survival rate (30 μg/kg iv qd × 5, 6th day, (I)) | relative survival rate (30 μg/kg iv qd × 5, 6th day, (II)) | relative survival rate (30 μg/kg iv qd × 5, 7th day, Example 5 (I)) | relative survival rate (30 μg/kg iv qd × 5, 7th day, Example 5 (II)) | relative survival rate (30 μg/kg iv qd × 7, 6th day, (I)) | relative survival rate (30 μg/kg iv qd × 7, 7th day, (I))
17*: Number of survival animal (mice n = 20, 30 μg/kg iv qd × 7, killed, (I))
75%: relative survival rate (5 μg/kg (so in the source) iv qd × 5, 6th day, (I)) | relative survival rate (30 μg/kg iv qd × 3, 7th day, (II)) | relative survival rate (30 μg/kg iv qd × 3, killed, (II))
65%: relative survival rate (5 μg/kg (so in the source) iv qd × 5, 7th day, (I)) | relative survival rate (15 μg/kg iv qd × 5, 7th day, (II)) | relative survival rate (15 μg/kg iv qd × 5, killed, (I)) | relative survival rate (15 μg/kg iv qd × 5, killed, (II)) | relative survival rate (30 μg/kg iv qd × 3, killed, (I))
95%: relative survival rate (5 μg/kg (so in the source) iv qd × 5, 4th day, (I)) | relative survival rate (15 μg/kg iv qd × 5, 4th day, (II)) | relative survival rate (15 μg/kg iv qd × 5, 5th day, (I)) | relative survival rate (30 μg/kg iv qd × 3, 4th day, (I)) | relative survival rate (30 μg/kg iv qd × 3, 5th day, (II)) | relative survival rate (30 μg/kg iv qd × 5, 5th day, (II)) | relative survival rate (30 μg/kg iv qd × 5, 5th day, Example 5 (I)) | relative survival rate (30 μg/kg iv qd × 5, 5th day, Example 5 (II)) | relative survival rate (30 μg/kg iv qd × 5, 6th day, Example 5 (I)) | relative survival rate (30 μg/kg iv qd × 5, 6th day, Example 5 (II))
80%: relative survival rate (15 μg/kg iv qd × 5, 6th day, (II)) | relative survival rate (30 μg/kg iv qd × 3, 6th day, (I)) | relative survival rate (30 μg/kg iv qd × 3, 6th day, (II)) | relative survival rate (30 μg/kg iv qd × 5, killed, (I)) | relative survival rate (30 μg/kg iv qd × 7, killed, (II))
50%: relative survival rate (5 μg/kg (so in the source) iv qd × 5, killed, (I)) | relative survival rate (7.5 μg/kg iv qd × 5, killed, (II))
85%: relative survival rate (7.5 μg/kg iv qd × 5, 5th day, (II)) | relative survival rate (15 μg/kg iv qd × 5, 6th day, (I)) | relative survival rate (30 μg/kg iv qd × 5, 7th day, (I)) | relative survival rate (30 μg/kg iv qd × 5, 7th day, (II)) | relative survival rate (30 μg/kg iv qd × 5, killed, (II)) | relative survival rate (30 μg/kg iv qd × 5, killed, Example 5 (I)) | relative survival rate (30 μg/kg iv qd × 7, killed, (I))
80% and 90%: relative survival rate (30 μg/kg iv qd × 5, killed, Example 5 (II))
55%: relative survival rate (7.5 μg/kg iv qd × 5, 7th day, (II))
18*: Number of survival animals (mice n = 20, 30 μg/kg iv qd × 7, killed, (II))
70%: relative survival rate (7.5 μg/kg iv qd × 5, 6th day, (II)) | relative survival rate (15 μg/kg iv qd × 5, 7th day, (I)) | relative survival rate (30 μg/kg iv qd × 3, 7th day, (I))
18: Number of survival animals (mice n = 20, 30 μg/kg iv qd × 7, 7th day, (II))

Reference: patent US9555076B2, “Neuregulin based methods and compositions for treating cardiovascular diseases” (Zensun (Shanghai) Science & Technology, Co., Ltd., priority 2002, dated 2017)
